In IntAct's records for PubMed 24121231:

Target: not2_yeast CDC36 (UniProt P06100)
Sequence of UniProt P06100 (P06100 whole entry): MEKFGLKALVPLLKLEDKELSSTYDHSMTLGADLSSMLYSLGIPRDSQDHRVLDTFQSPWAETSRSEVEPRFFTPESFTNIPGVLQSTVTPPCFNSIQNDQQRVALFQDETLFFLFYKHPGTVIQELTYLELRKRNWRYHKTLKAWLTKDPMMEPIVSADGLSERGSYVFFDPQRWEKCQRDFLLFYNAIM

Substance	effect of a mutation on the interaction
General negative regulator of transcription subunit 1 (Saccharomyces cerevisiae), P25655 F1751E	disrupting interaction strength
General negative regulator of transcription subunit 1 (Saccharomyces cerevisiae), P25655 R1811E;L1814E	disrupting interaction strength
